Tests used:
MS2 coat protein [1] = experiment: apparent KD of MS2 coat protein, switch ON state; designed switch direction (-1 OFF switch, 1 ON switch): -1; higher = weaker reporter binding; conditions: FMN input: 0 or 200 uM; Eterna round: R93 (includes R88 designs)
Procedure, shortened: (§1)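 Titrations with SNAP-549-labelled MS2 coat protein ran in twofold steps from 0.7 or 1.5 nM to 3 µM, each step taking 0.8–1.5 h at the start and 10–20 min toward the end. The targets were designed RNA switches transcribed on-chip from Illumina sequencing clusters, held in 100 mM Tris-HCl pH 7.5, 80 mM KCl, 4 mM MgCl2, without or with constant ligand. Apparent KD was taken per design as the median of normalised cluster binding-curve fits.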

MS2 coat protein [2] = experiment: apparent KD of MS2 coat protein, switch OFF state (with FMN for OFF switches, without FMN for ON switches); designed switch direction (-1 OFF switch, 1 ON switch): -1; higher = weaker reporter binding; conditions: FMN input: 0 or 200 uM; Eterna round: R93 (includes R88 designs)
Procedure, shortened: as §1

Sequence | apparent KD of MS2 coat protein (MS2 coat protein [1]) | apparent KD of MS2 coat protein (MS2 coat protein [2])
AAAAAAAGAGGAUAUACAUGAGAAAAAAAAAUGUAAAAAAAACAUGAGGAUCACCCAUGUAGAAGGCUUAAAAA [Ecxl-I] | 33.5 nM | 48.3 nM
AAAAAAAGAGGAUAUACGAACAUGUCGAAAGACGUGAAGGGACAUGAGGAUCACCCAUGUAGAAGGUUUAAAAA [Mat - Exclusion 2 - JL mod - D83] | 28.5 nM | 14.6 nM
AAAAAACAUGAGGAUCACCCAUGUAAGGAUAUCUAAAAUAAAAGAAAAAUAAAGAAAAGGAGAAGGUACAUGAA [JL wbt mod 21] | 28.6 nM | 50.6 nM
AAAAAACAUGAGGAUCACCCAUGUAAGGAUAUGCCUAAAAAAAAAAAAAAAAAAAAUGGCAGAAGGUGCAAAAA [excalibur15] | 41.6 nM | 35.4 nM
AAAAAACAUGAGGAUCACCCAUGUAAGGAUAUGUAAAAUAAAAGAAAAAUAAAGAAAAGCAGAAGGUACAAGAA [JL wbt mod 18] | 37.1 nM | 23.4 nM
AAAAAACAUGAGGAUCACCCAUGUCAGGAUAUCAUAAAAAAAAAAAAAAAAAAAAAAGUGAGAAGGGACAAAAA [exclusion1-cac1] | 42.9 nM | 32.7 nM
AAAAAACAUGAGGAUCACCCAUGUCAGGAUAUCCGGUUCUUGAAAAUCAAGAGGCGUUGGAGAAGGGACAUUCC [Chica Displaced 14 - Jieux - Exclusion 1] | 27.9 nM | 74.4 nM
AAAAAACAUGAGGAUCACCCAUGUGAGGAUAUCGAAAAGAAAAGAAAAGAAAGAAGAACGAGAAGGCACAAGAA [Sneferu] | 36.6 nM | 48 nM
AAAAAACAUGAGGAUCACCCAUGUGAGGAUAUCGAAAAGUCAAAGAAAAAGACGAAAACGAGAAGGCGCAAAAA [Inspired by Nando] | 23.7 nM | 26 nM
AAAAAACAUGAGGAUCACCCAUGUGAGGAUAUCGGAAACAAAAAAAACAAAAACAAAACGAGAAGGCACAAAAA [Amethyst 32] | 72.4 nM | 26.6 nM
AAAAAACAUGAGGAUCACCCAUGUGAGGAUAUGCAAAAAUAAAAUAAAAUAAUAAAAAGCAGAAGGCACAAAAA [Amethyst 76] | 20.5 nM | 26.4 nM
AAAAAACAUGAGGAUCACCCAUGUGAGGAUAUGCGAAAAUAAAAUAAAAUAAUAAAAAGCAGAAGGCACACCAA [58%, Sh'dynasty, 2] | 22 nM | 29 nM
AAAAAACAUGAGGAUCACCCAUGUGAGGAUAUGGAAAAGAAAAGAAAAGAAAGAAGAACCAGAAGGCACAAGAA [Khafre] | 30 nM | 37.9 nM
AAAAAACAUGAGGAUCACCCAUGUGAGGAUAUGUAAAAUAAAAUAAAAAUAAAAAAAAGCAGAAGGUAUAUGAA [Amethyst 66] | 31.4 nM | 40.6 nM
AAAAAACAUGAGGAUCACCCAUGUUAGGAUAUGCUAUGGAAAAUAAAAAAUAAACAUAGCAGAAGGAACAAAAA [Mat - Exclusion 1 - Eli mod - D30] | 21.2 nM | 32.6 nM
AAAAAAGCAGGAUAUACGUACAUGUCAAAAGACGUGAAGGGACAUGAGGAUCACCCAUGUAGAAGGGUUAAGAA [JL Stem Breaker 17] | 220 nM | 49.4 nM

Sequence | apparent KD of MS2 coat protein (MS2 coat protein [1]) | apparent KD of MS2 coat protein (MS2 coat protein [2])
AAAAAAGGAGGAUAUACGUACAUGUCAAAAGACGUGAAGGGACAUGAGGAUCACCCAUGUAGAAGGUUUAAAAA [JL Wide Open 31] | 49.1 nM | 18.3 nM
AAAAACAGAGGAUAUACAAAAUGAUGACGAAAGUCAUCAAAACAUGAGGAUCACCCAUGUAGAAGGCUGAAAAA [Mod of Meechl] | 24.2 nM | 20.2 nM
AAAAACAGAGGAUAUACAUGAGGAUCACCCAUGUAAAAAUGUAGAAGGCUGAAAAAAAAAAGAAGGAAAAAAAA [Meechl Ex3 R2 m0] | 21.6 nM | 23.2 nM
AAAAACUCAGGAUAUACAUGAGGAUCACCCAUGUAAAAAAAAAAAAAGGGAAAAAAAAGUAGAAGGGAGAAAAA [Semenre] | 25.5 nM | 37.2 nM
AAAAAGAGAGGAUAUGCAGGAGAAAAAAAAAAAAAAAAAAAACAUGAGGAUCACCCAUGUAGAAGGCUCAAAAA [Ecls2-II] | 28.4 nM | 15.7 nM
AAAAAGAGAGGAUAUGCAGGAGGUAAGGUCAAAAAAAAAAAACAUGAGGAUCACCCAUGUAGAAGGUUUAAAAA [Ecls2-VI] | 29.3 nM | 23.5 nM
AAAAAGCGAGGAUAUACAAAAGAGCGAAAGCUCAAAAGGAAACAUGAGGAUCACCCAUGUAGAAGGCGCAAGAA [John Whine] | 23.1 nM | 20.1 nM
AAAAAGCUAGGAUAUACGAAAAAAAAGGGUAAAAAAUAAAAACAUGAGGAUCACCCAUGUAGAAGGAGCAAAAA [Mat - Exclusion 2 - Tesla mod - D36] | 43.2 nM | 77.9 nM
AAAAAGGCAGGAUAUACAAAACAGGGAAACCUGAAAAGGAAACAUGAGGAUCACCCAUGUAGAAGGGCCAAGAA [Clint Eastwood] | 31 nM | 30.9 nM
AAAAAGGCAGGAUAUACAUGAGGAUCACCCAUGUUUUAAAAAAAAAAAAAAAAAAAAAGUAGAAGGGCCAAAAA [Ex 3.1] | 52.3 nM | 39.7 nM
AAAAAGGCAGGAUAUACGAAGCUAAGACAAAUAAGCAAGGGACAUGAGGAUCACCCAUGUAGAAGGGCCAAAAA [Exclusion 2-01... 60% 3] | 41.1 nM | 132 nM
AAAAAGGGAGGAUAUACAUGAGGAUCACCCAUGUAAAAAAAAAAAAAGGGAAAAAAAAGUAGAAGGCCCAAAAA [Apepi] | 50.1 nM | 52.6 nM
AAAAAGGGAGGAUAUACAUGAGGAUCACCCAUGUGUCAGACGAAAAAGAGUCUGAAGUGUAGAAGGCCCAAAAA [65%, Moding Exclusion3-cac2, 1] | 25.9 nM | 40.7 nM
AAAAAGGUAGGAUAUACAUGAGGAUCACCCAUGUAAAAAAAAACAAGAGAAAAAAAAUGUAGAAGGGCCAAAAA [Ex3 Malc#4] | 14.3 nM | 16.9 nM
AAAAAGGUAGGAUAUACAUGAGGAUCACCCAUGUAAAAAAAUGGAGAAAAAAACAAUUGUAGAAGGGCCAAAAA [Ex3 Malc#7] | 38.8 nM | 61.6 nM

— the supplement of paper PMC9170038
